Measurements: patent US6413730

Biological target: T1, GST-hElk-L cytoplasmic domain fusion protein (GST-Elk-L cyt) (UniProt P98172)
T1 sequence: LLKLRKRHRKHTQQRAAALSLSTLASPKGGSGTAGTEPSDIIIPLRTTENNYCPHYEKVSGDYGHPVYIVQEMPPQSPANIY

With v-Src the “in vitro kinase assay with 32P-gamma-ATP, autoradiography” value was “A GST fusion protein containing the cytoplasmic domain of human Elk-L (residues 262-343) was tyrosine phosphorylated by v-Src in vitro”.
